Assay results reported in paper PMC8015000, “FYN and ABL Regulate the Interaction Networks of the DCBLD Receptor Family” (Molecular & Cellular Proteomics : MCP, 2020).

T1: DCBLD2-FLAG-MYC (full-length human Discoidin, CUB, and LCCL domain-containing protein 2) (human, UniProt Q96PD2 67-775)
T1 construct: DCBLD2, human, full-length cDNA in pCMV6-Entry (OriGene RC224483); Expressed alone or together with ABL-FLAG or FYN; also called ESDN; source: HEK 293, transfected, in lysate; immunoprecipitated (alpha-FLAG or alpha-MYC) for the zebrafish extract experiment and the far-Western; not shown: FLAG, C-terminal, kept; MYC, C-terminal, kept
T1 sequence (looked up): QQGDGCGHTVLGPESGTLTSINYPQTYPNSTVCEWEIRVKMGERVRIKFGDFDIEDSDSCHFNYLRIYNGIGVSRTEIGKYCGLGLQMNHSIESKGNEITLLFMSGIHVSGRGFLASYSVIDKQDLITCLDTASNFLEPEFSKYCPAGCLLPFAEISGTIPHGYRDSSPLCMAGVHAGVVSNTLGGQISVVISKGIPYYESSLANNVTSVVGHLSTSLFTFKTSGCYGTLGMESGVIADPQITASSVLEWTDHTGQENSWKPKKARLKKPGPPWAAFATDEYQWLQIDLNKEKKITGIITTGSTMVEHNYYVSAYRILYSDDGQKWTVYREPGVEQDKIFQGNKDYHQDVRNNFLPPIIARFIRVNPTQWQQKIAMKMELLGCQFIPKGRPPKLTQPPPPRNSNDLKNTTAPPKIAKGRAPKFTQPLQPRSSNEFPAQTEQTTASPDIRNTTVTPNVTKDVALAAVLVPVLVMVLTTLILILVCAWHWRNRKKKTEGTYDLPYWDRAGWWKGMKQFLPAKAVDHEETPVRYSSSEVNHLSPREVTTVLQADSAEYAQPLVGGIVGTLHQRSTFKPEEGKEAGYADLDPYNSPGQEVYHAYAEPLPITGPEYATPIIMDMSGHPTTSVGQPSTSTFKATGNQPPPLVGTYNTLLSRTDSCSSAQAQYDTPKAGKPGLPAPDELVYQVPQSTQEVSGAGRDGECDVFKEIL

B1: GST-14-3-3σ (natural protein, UniProt P31947 1-248, looked up)
chain: MERASLIQKAKLAEQAERYEDMAAFMKGAVEKGEELSCEERNLLSVAYKNVVGGQRAAWRVLSSIEQKSNEEGSEEKGPEVREYREKVETELQGVCDTVLGLLDSHLIKEAGDAESRVFYLKMKGDYYRYLAEVATGDDKKRIIDSARSAYQEAMDISKKEMPPTNPIRLGLALNFSVFHYEIANSPEEAISLAKTTFDEAMADLHTLSEDSYKDSTLIMQLLRDNLTLWTADNAGEEGGEAPQEPQS
notes: 14-3-3σ, pGEX plasmid, gift of M. Yaffe; also called fusion of GSH S-transferase with 14-3-3σ; source: E. coli, purified on glutathione resin (kept on the beads for pull-down; eluted with GSH and dialyzed for far-Western)
B2: GST-14-3-3ε (natural protein, UniProt P62258 1-255, looked up)
chain: MDDREDLVYQAKLAEQAERYDEMVESMKKVAGMDVELTVEERNLLSVAYKNVIGARRASWRIISSIEQKEENKGGEDKLKMIREYRQMVETELKLICCDILDVLDKHLIPAANTGESKVFYYKMKGDYHRYLAEFATGNDRKEAAENSLVAYKAASDIAMTELPPTHPIRLGLALNFSVFYYEILNSPDRACRLAKAAFDDAIAELDTLSEESYKDSTLIMQLLRDNLTLWTSDMQGDGEEQNKEALQDVEDENQ
notes: 14-3-3ε, pGEX plasmid, gift of M. Yaffe; also called fusion of GSH S-transferase with 14-3-3ε; source: E. coli, purified on glutathione resin (kept on the beads for pull-down; eluted with GSH and dialyzed for far-Western)
B3: GST-14-3-3β (natural protein, UniProt P31946 1-246, looked up)
chain: MTMDKSELVQKAKLAEQAERYDDMAAAMKAVTEQGHELSNEERNLLSVAYKNVVGARRSSWRVISSIEQKTERNEKKQQMGKEYREKIEAELQDICNDVLELLDKYLIPNATQPESKVFYLKMKGDYFRYLSEVASGDNKQTTVSNSQQAYQEAFEISKKEMQPTHPIRLGLALNFSVFYYEILNSPEKACSLAKTAFDEAIAELDTLNEESYKDSTLIMQLLRDNLTLWTSENQGDEGDAGEGEN
notes: 14-3-3β, pGEX plasmid, gift of M. Yaffe; also called fusion of GSH S-transferase with 14-3-3β; source: E. coli, purified on glutathione resin (kept on the beads for pull-down; eluted with GSH and dialyzed for far-Western)
B4: GST-14-3-3ζ (natural protein, UniProt P63104 1-245, looked up)
chain: MDKNELVQKAKLAEQAERYDDMAACMKSVTEQGAELSNEERNLLSVAYKNVVGARRSSWRVVSSIEQKTEGAEKKQQMAREYREKIETELRDICNDVLSLLEKFLIPNASQAESKVFYLKMKGDYYRYLAEVAAGDDKKGIVDQSQQAYQEAFEISKKEMQPTHPIRLGLALNFSVFYYEILNSPEKACSLAKTAFDEAIAELDTLSEESYKDSTLIMQLLRDNLTLWTSDTQGDEAEAGEGGEN
notes: 14-3-3ζ, pGEX plasmid, gift of M. Yaffe; also called fusion of GSH S-transferase with 14-3-3ζ; source: E. coli, purified on glutathione resin (kept on the beads for pull-down; eluted with GSH and dialyzed for far-Western)

Biological target: T1, DCBLD2-FLAG-MYC (full-length human …)
Assay: pull-down; GST-14-3-3 fusions on GSH beads rocked at 4 C with lysates of 293 cells expressing DCBLD2-FLAG-MYC alone or with ABL-FLAG; washed 3x with BCLB; Western blotting (alpha-MYC for DCBLD2)
Details: one partner purified

Binding result, binds:
B1
B2
B3
B4
